B1: Atto565 dsDNA 70 bp with 9-nt homology (dsDNA)
DNA 1: CCGGAGGCCTTAGGCCTTAGGCCTTAGGCCTTCAGCTGTTAGCCTTAGCTAGCTAGCTAGCTAGCTAGCT
DNA 2: AGCTAGCTAGCTAGCTAGCTAGCTAAGGCTAACAGCTGAAGGCCTAAGGCCTAAGGCCTAAGGCCTCCGG
B2: replication fork (RF) (mixed)
DNA 1: GACGCTGCCGAATTCTACCAGTGCCTTGCTAGGACATCTTTGCCCACCTGCAGGTTCACCC
DNA 2: GGACATCTTTGCCCACCTGCAGGTTCACCC
DNA 3: TGGGTGAACCTGCAGGTGGGCAAAGATGTCC
DNA 4: GGGTGAACCTGCAGGTGGGCAAAGATGTCCCAGCAAGGCACTGGTAGAATTCGGCAGCGTC
B3: D-loop (mixed)
DNA 1: CATTGCATATTTAAAACATGTTGGAAGGCTCGATGCATGCTGATAGCCTACTAGTGCTGCTGGCTTTCAAATGACCTCTTATCAAGTGAC
DNA 2: GTCACTTGATAAGAGGTCATTTGAATTCATGGCTTAGAGCTTAATTGCTGAATCTGGTGCTGGGATCCAACATGTTTTAAATATGCAATG
DNA 3: CTGCTACGATGCTAGTCGTAGCTCGGCAGTCGTAGCAGGTTCCCAGCACCAGATTCAGCAATTAAGCTCTAAGCCATGAA
B4: DNA bubble (mixed)
DNA 1: B3 DNA 1
DNA 2: B3 DNA 2

Legend:
RAD51;BRCA1;BARD1 = RAD51;BRCA1;BARD1 (human;human?;human?, UniProt Q06609;P38398;Q99728 1-339;1-1863;1-777, ||); test: single-molecule DNA curtain
RAD51 = RAD51 (human, UniProt Q06609 1-339); test: single-molecule DNA curtain
Chain of RAD51 (Q06609 whole entry): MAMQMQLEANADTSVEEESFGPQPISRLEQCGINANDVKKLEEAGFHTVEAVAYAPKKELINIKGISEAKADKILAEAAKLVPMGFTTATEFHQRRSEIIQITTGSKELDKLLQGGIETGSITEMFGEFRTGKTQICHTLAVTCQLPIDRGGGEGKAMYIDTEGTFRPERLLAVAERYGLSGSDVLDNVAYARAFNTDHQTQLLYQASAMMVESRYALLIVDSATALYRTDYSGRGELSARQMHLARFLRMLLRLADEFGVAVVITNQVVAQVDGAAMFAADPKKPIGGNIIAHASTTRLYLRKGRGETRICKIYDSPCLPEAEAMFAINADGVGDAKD

BRCA1;BARD1 = BRCA1;BARD1 (human?;human?, UniProt P38398;Q99728 1-1863;1-777, |); test: EMSA
BARD1 124-270 = BARD1 124-270 (UniProt Q99728 124-270); test: EMSA
Chain of BARD1 124-270 (Q99728 124-270): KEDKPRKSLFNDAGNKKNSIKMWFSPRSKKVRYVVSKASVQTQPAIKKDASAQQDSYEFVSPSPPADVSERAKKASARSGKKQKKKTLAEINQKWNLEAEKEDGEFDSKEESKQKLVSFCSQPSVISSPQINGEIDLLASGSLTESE

BRCA1 = BRCA1 (UniProt P38398 1-1863); test: Southwestern
BARD1 = BARD1 (UniProt Q99728 1-777); test: Southwestern
Chain of BARD1 (Q99728 whole entry): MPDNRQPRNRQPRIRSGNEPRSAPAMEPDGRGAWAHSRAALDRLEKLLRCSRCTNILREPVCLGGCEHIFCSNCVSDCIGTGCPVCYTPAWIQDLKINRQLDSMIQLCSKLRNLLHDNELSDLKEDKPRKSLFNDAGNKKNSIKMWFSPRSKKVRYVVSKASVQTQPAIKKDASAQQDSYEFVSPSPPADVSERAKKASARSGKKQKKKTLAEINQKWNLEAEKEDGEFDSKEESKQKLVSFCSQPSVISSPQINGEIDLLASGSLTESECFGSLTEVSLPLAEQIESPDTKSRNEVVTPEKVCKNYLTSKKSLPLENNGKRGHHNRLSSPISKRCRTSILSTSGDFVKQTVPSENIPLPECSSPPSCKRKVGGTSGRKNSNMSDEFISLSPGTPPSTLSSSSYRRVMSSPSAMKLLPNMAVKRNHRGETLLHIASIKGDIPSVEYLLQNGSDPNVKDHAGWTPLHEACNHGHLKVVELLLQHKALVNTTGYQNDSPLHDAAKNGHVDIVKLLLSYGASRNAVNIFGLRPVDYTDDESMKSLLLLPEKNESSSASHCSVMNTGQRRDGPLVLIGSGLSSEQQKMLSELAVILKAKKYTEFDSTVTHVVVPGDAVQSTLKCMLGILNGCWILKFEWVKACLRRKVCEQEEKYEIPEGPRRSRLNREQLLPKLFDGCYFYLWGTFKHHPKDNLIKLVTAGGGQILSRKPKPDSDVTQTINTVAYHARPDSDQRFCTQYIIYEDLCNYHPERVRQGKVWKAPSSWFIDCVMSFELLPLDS

| Binder | binding result (RAD51;BRCA1;BARD1) | binding result (RAD51) | binding result (BRCA1;BARD1) | binding result (BARD1 124-270) | binding result (BRCA1) | binding result (BARD1) |
| --- | --- | --- | --- | --- | --- | --- |
| B1 | binds | binds | – | – | – | – |
| B2 | – | – | binds | – | – | – |
| B3 | – | – | binds | binds | binds | binds |
| B4 | – | – | binds | binds | – | – |
